Experimental data as given in the supplement of paper PMC9170038.

Assays:
MS2 coat protein [1] = test: apparent KD of MS2 coat protein, switch ON state; designed switch direction (-1 OFF switch, 1 ON switch): 1; higher = weaker reporter binding; settings: FMN input: 0 or 200 uM; Eterna round: R93 (includes R88 designs)
In short: (§1)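 For every design, apparent KD is the median of normalised binding-curve fits from its clusters. The RNA switches were transcribed on-chip from Illumina sequencing clusters and titrated with SNAP-549-labelled MS2 coat protein (twofold steps, 0.7 or 1.5 nM to 3 µM; 0.8–1.5 h to 10–20 min per step). Titrations used 100 mM Tris-HCl pH 7.5, 80 mM KCl, 4 mM MgCl2, without or with constant ligand.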

MS2 coat protein [2] = test: apparent KD of MS2 coat protein, switch OFF state (with FMN for OFF switches, without FMN for ON switches); designed switch direction (-1 OFF switch, 1 ON switch): 1; higher = weaker reporter binding; settings: FMN input: 0 or 200 uM; Eterna round: R93 (includes R88 designs)
In short: as §1

Sequence	apparent KD of MS2 coat protein (MS2 coat protein [1]) [nM]	apparent KD of MS2 coat protein (MS2 coat protein [2]) [nM]
AAACAGCACAGGUAGGAUAUGUAGGGUGGUACAUGAGGAUCACCCAUGUAUCCACCCUUCGAAAGGCAGAAGGGCCUGCCGCUGC [Cealaes]	15.4	16.6
AUAAAACAUGAGGAUCACCCAUGUGAAAACGUGGGAGGAUAUACGUAGACGAAAGUCGACGUAGAAGGCCUAAAAG [Same State 1.4n.1 (Mat - Mod of Eli - )]	119	197
GACAGACAUGAGGAUCACCCAUGUACAAACGUACAAGGAUAUGUGUGGAAACCGUACUAUACAGAAGGUGUCUGUC [SS1 - 90]	126	90.3
AUGAUACAUGAGGAUCACCCAUGUCACCUCACACGAGGAUAUCUGUGCAGUACUCAGUACGGAGAAGGCGUGGAAA [Same State 1.2d (Same State of Confusion2 - KL)]	20.2	78.1
AGGAAACAUGAGGAUCACCCAUGUAAAAAAUAUGGAGGAUAUGGAAACACGAAAGUGAAACCAGAAGGCUAAAAAA [77%, Mat - Mod of Eli, 24]	17	26.9
AAAUAAAUGACUGAGGAUAUAUCGAAGAAGACAUGAGGAUCACCCAUGUAAUAAUAAAAAGGGUGGUAGAAGGUAGUCAACAAAC [Mod 9 of Pariah 4 by Hyphema in Round 1]	331	376
AAAUAAAGGACUGAGGAUAUACCACAUGAAACAUGAGGAUCACCCAUGUUGAAAAACAGAGGGUGGUAGAAGGUAGUCCACAAAC [Same State 2.5b ( so lets mod hyphema)]	21.4	51.3
GAAAAUAAAAGACAGGAUAUCCAAAAGAAAACAUGAGGAUCACCCAUGUAAAGAAAAUAAAAAUGGGAGAAGGGUCAAAUAAAAG [Mat - Same State 2 - JL mod - D52]	64.8	56.6
AACAAUCUAUCUGAGGAUAUAUGUCGAAAGACAUGAGGAUCACCCAUGUGAAAACAUGAAAAAUCAUAGAAGGCAGAUAGAUUGA [SS2: 1138]	49	393
AGGAGACAUGAGGAUCACCCAUGUGAGAAGAGGCGAGGAUAUCGAAAGAAAGAAGAGAAACGAGAAGGCGCGAGGC [salish99-SS1-031]	27	23.5
AGGAAACAUGAGGAUCACCCAUGUAGAAAUAUGGGAGGAUAUACAAAGACGAAAGUCAAAGUAGAAGGCCUAAAAG [76%, Meechl 1]	22.8	63
GAAAAACAUGAGGAUCACCCAUGUGAUAAUAUGGGAGGAUAUACAAAGACGAAAGUCAAAGUAGAAGGCCUAAAAG [Garnet 35]	40.5	73.2
AAUAUAUUAAGUGAGGAUAUCAAGAAAAAAACAUGAGGAUCACCCAUGUGGGAAACACGGUAGGGUGAGAAGGUACUUAAUAUAU [Samwise Clockwise 20 - Jieux - Same State 2]	504	27.6
AAGAAACAUGAGGAUCACCCAUGUAAGAUAAACACAGGAUAUGCGAAAAUAAACAAAGAAGCAGAAGGGUGAAGAA [Mat - Same State 1 - Tesla mod - 62]	13.5	41.9
AAAAAAAAUGUGUAGGAUAUCAGUAAAAAUACAUGAGGAUCACCCAUGUUCAAAAAAAAAAAAACUGAGAAGGACACGGGAAGUCC [Design 2]	20.5	18.5
GGGAGACAUGAGGAUCACCCAUGUGAGAAGAGGCGAGGAUAUCGAAAGAAAGAAGAGAAACGAGAAGGCGCGAGCG [salish99-SS1-060]	32.5	86.7
ACCAGGAAGAGAGAGGAUAUCCAAAGGAAAACAUGAGGAUCACCCAUGUAAAAGGUAGGAAAUUGGGAGAAGGCUCAAGAGAGAG [salish99-ss2-101]	26.7	30.1
AAAAUACAUGAGGAUCACCCAUGUGAAAAUAUGGGAGGAUAUCAUGGAAAAAAAAAAACAUGAGAAGGCCCAAAAA [SS! 1 MT 10]	24.8	104
AGCAUAGACAGAGAGGAUAUCCACGAGACAACAUGAGGAUCACCCAUGUGAAAGAGAAUACGAUGGGAGAAGGCUCGCGAUACGA [Topaz 49]	13.4	19.7
AACCAACAUGAGGAUCACCCAUGUAGAAAUAUGGGAGGAUAUACAAACACGAAAGUGAAAGUAGAAGGCCUAAAAG [77%, Mat - Mod of Eli, 6]	22.5	125
UUACAGCACGGGUAGGAUAUGUAGGGUGGUACAUGAGGAUCACCCAUGUAUCCACCCUUCUAACGGCAGAAGGGCCUGUCGCUGC [Riarve]	16.9	15.4

Sequence	apparent KD of MS2 coat protein (MS2 coat protein [1]) [nM]	apparent KD of MS2 coat protein (MS2 coat protein [2]) [nM]
AAAGAAAAACUAGAGGAUAUCUGAAUGAUAACAUGAGGAUCACCCAUGUGAAGAAAGGAAUAUGAGGAGAAGGCUAGAAGAAAAA [JL Nando mod 19]	33.9	44.9
GAAAAACAUGAGGAUCACCCAUGUGAGAAUAUGGGAGGAUAUACGAAGACGAGAGUCGAAGUAGAAGGCCUAAAAG [Mat - Same State 1 - Eli mod - 31]	28.2	119
GAAAAACAUGAGGAUCACCCAUGUGACAACAUGGGAGGAUAUACAUGGACGAUAGUCAAAGUAGAAGGCCUAAAAG [Garnet 63]	142	24.4
AAAAAACAUGAGGAUCACCCAUGUAAACCUCAUGUAGGAUAUACAAAAAAAAAAAAAAAAGUAGAAGGACAAAAAA [Omei A variation 2]	4790	1970
ACAAGGCUACACUAGGAUAUGGGUGUCUAAACAUGAGGAUCACCCAUGUGAUGGCAAAACAAAGCUCAGAAGGAGUCGUAGCCCA [Anvemais]	14.7	27.4
GAAAAACAUGAGGAUCACCCAUGUGAAAAUAUGGGAGGAUAUACAAAGACGAAAGUCAAAGUAGAAGGCCUAAGAG [Garnet 34]	22.1	72
AAAUAGUGCACUAAGGAUAUGUCGCAUGACACAUGAGGAUCACCCAUGUGGUAACACAGAGGGUGGCAGAAGGUAGUGUGCAAAC [Mod 2 of Pariah 6 (Round1) by Hyphema]	35.7	446
AAAAAACAUGAGGAUCACCCAUGUCUUUUGACAUGAGGAUAUGUACAGACUUCGGUCUGUACAGAAGGCAUGAAAA [SS1 - 1029]	48.4	432
GAAAAACAUGAGGAUCACCCAUGUGAGAAUAUGGAAGGAUAUACAAAGACGAGAGUCAAAGUAGAAGGUCUAAAAG [Mat - Same State 1 - Eli mod - D21]	22.1	31.7
AAACCACAUGAGGAUCACCCAUGUAGAAAUAUGGGAGGAUAUACGAAAACGAAAGUCAAAGUAGAAGGCCUAAAAG [saturn 2]	36.7	129
AAGAAAGAAACGCAGGAUAUGCAAAACAAAACAUGAGGAUCACCCAUGUCAAACAAACAAACAAAGCAGAAGGGCGAAAGAAAGAA [Same State 2 AA]	18.1	21.3
GCUCCAGCUAGCAAGGAUAUGUAGGAUGCUACAUGAGGAUCACCCAUGUGCUGAAAUAAGUCCCGGCAGAAGGUGUGACUGGAGC [Quleorla]	13.8	19.9
AAAAAAUAAAAAAAGGAUAUCUGCAGUACGACAUGAGGAUCACCCAUGUGGUACUGCAGAUAUCAAAAGAAGGAAAAAUAAAAAA [SS2: MS2 52]	13.6	18.1
AAGAAACAUGAGGAUCACCCAUGUAGAAAUAUGGGAGGAUAUACAAGGACGAGAGUCAAGGUAGAAGGCCUAAGAA [Mat - Same State 1 - Meechl mod - D134]	17.6	111
AACAGACAUGAGGAUCACCCAUGUAGGAUUAUGGGAGGAUAUACAAAGACGAGAGUCAGAGUAGAAGGCCUAGGAA [salish99-ss1-147]	16.7	57.9
AAAAGACAUGAGGAUCACCCAUGUCGAAAGACAUGAGGAUAUGUACAGACUUCGGUCUGUACAGAAGGCAUGUAAA [SS1 - 1068]	16.7	50.3
AAAAGACAUGAGGAUCACCCAUGUAGGCCAAAGCAAGGAUAUAGGCCACAGGGACGUGGACUAGAAGGUGCACGGC [Xereedes]	21.9	107
AGGAAACAUGAGGAUCACCCAUGUCUAAAUAUGGGAGGAUAUGCACAAAAGGAAAUAACUGCAGAAGGCCUAAAAA [62%, Redo, 4]	17.3	103
GAGGACCUAGGAUAGGAUAUGUGAAAAAUUACAUGAGGAUCACCCAUGUCCAUUUAUAUGGGAACAUAGAAGGGUUCUGGUUAUC [Mat - Same state - Malcolm Mod - D150]	35.7	61.6
GACGAACAUGAGGAUCACCCAUGUCAAAACGGACAAGGAUAUGUGUGGAAACCGUACUAUACAGAAGGUGUCUGUC [SS1 - 98]	16.1	21.3
AAAAAAAAAAGGCAGGAUAUCCAAAAAAAAACAUGAGGAUCACCCAUGUAAAAAAAAAAAAAAUGGGAGAAGGGCCAAAAAAAAA [Mat - Same State 2 - Rerun Eli mod - D85]	63.1	64.4
